From US20190022241A1 (AbbVie / Abbott, published 2019)
Blank lines part the entries; values can stand above or below the binder they belong to.

Tests used:
[1] = target: T1, SEZ6 Sushi Domain 3 (amino acids 690-748) on yeast (human, UniProt Q53EL9 709-767); assay: yeast display, flow cytometry;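 also: antibody binding to individual SEZ6 domains displayed on yeast, measured by flow cytometry, antibody at 50 nM purified or hybridoma supernatant diluted 1:2, 90 min on ice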
T1 construct: yeast display

[2] = target: T2, SEZ6 Sushi Domain 4 (amino acids 750-813) on yeast (human, UniProt Q53EL9 769-832); assay: yeast display, flow cytometry;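 also: antibody binding to individual SEZ6 domains displayed on yeast, measured by flow cytometry, antibody at 50 nM purified or hybridoma supernatant diluted 1:2, 90 min on ice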
T2 construct: yeast display

hSEZ6-ECD-His = target: T3, hSEZ6-ECD-His (human, UniProt Q53EL9 20-925); assay: immunohistochemistry, signal competed by soluble antigen
T3 construct: the whole entry is named; also called recombinant SEZ6-His; human recombinant SEZ6-His

[3] = target: T4, human SEZ6 on HEK-293T cells (human, UniProt Q53EL9 20-994); assay: immunohistochemistry
T4 construct: also called h293T-HuSEZ6

[4] = target: T5, SEZ6 Sushi Domain 5 (amino acids 817-878) on yeast (human, UniProt Q53EL9 836-897); assay: yeast display, flow cytometry;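 also: antibody binding to individual SEZ6 domains displayed on yeast, measured by flow cytometry, antibody at 50 nM purified or hybridoma supernatant diluted 1:2, 90 min on ice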
T5 construct: yeast display

[5] = target: T6, SEZ6 Sushi Domain 2 (amino acids 511-572) on yeast (human, UniProt Q53EL9 530-591); assay: yeast display, flow cytometry;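 also: antibody binding to individual SEZ6 domains displayed on yeast, measured by flow cytometry, antibody at 50 nM purified or hybridoma supernatant diluted 1:2, 90 min on ice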
T6 construct: yeast display
T6 sequence: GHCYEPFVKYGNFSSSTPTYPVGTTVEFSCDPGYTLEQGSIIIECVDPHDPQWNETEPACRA

B2: SC17.140 (antibody, V domains shown)
VH: EVQLQQSGPELMKPGASVKMSCKASGYTFTDYNMHWVKQNQGKSLEWIGEINPNTGGTGYNQKFKGKATLTVDKFSSTAFIELRSLTSEDSAIYYCTRGGYDHYWYFDVWGAGTTVTVSS
VL: QIVLTQSPAIMSASPGEKVTMTCSASSSVSYMHWYQQKSGTSPKRWIYDTSKLASGVPARFSGSGSGTSYSLTISSMEAEDAATYYCQQWSSTPPTFGSGTKLEIK
notes: murine mAb
binding result [2]: binds
binding result (hSEZ6-ECD-His): binds
binding result [3]: binds

B3: SC17.74 (antibody, V domains shown)
VH: QVQLKQSGPGLVAPSQSLSITCTVSGFSLTSYGVDWVRQSPGKGLEWLGVIWGGGSTNYNSALKSRLSITKDNSKSQVFLKMNSLQTDDTAMYYCASGDYDGSLWFAYWGQGTLVTVSA
VL: DIQMTQSSSYLSVSLGGRVTITCKASDHINNWLAWYQQKPGNAPRLLISGATSLETGVPSRFSGSGSGKDYTLSITSLQTEDVATYYCQQYWSTPPTFGAGTKLELK
notes: murine mAb
binding result [4]: binds

Next, values leading:

binding result [1]: binds
B1: SC17.95 (antibody, V domains shown)
VH: EVELQQSGPELVKPGASVKISCKTSGNTYTEYTMQWVKLSHGKSLEWIGGINPNNGITSYNQKFKGKATLTVDKSSSTAYMELRSLKSEDSAVYYCARAGLGNYVWAMDYWGQGASVTVSS
VL: DIQMTQTTSSLSASLGDRVTISCSASQGINNYLNWYQQKPDGTVTLLIYYTSSLHSGVPSRFSGSGSGTDYSLTISNLEPEDIATYYCQQYSKLPWTFGGGTKLEIK
notes: murine mAb

binding result [5]: binds
B4: SC17.90 (antibody, V domains shown)
VL: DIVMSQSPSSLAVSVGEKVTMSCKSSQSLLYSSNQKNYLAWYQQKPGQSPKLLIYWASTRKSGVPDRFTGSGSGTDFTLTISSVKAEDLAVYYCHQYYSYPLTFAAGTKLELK
VH: QVQLQQPGSVLVRPGASVKLSCKASGYTFTSYWMHWVKQRPGQGLEWIGEIHPNNGSTNYNEKFKGKATLTVDTSSSTAYVDLSSLTSEDSAVYYCARWTLFTYWGQGTLVTVSA
notes: murine mAb; also called SC17.155 (duplicate)
